# System: Escherichia coli TOP10
# Assay: shrunken log2 fold change of peptide-encoding DNA abundance (4.5 h post-induction vs induction); higher = less antimicrobial activity (less host growth inhibition)
# Details: time post-induction: 4.5 h; library: site-saturation at positions 5, 18, 19, 20
# 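Further: peptides expressed intracellularly from a pBAD plasmid library in pooled LB shake-flask culture, induced with 0.3% L-arabinose, DNA abundance read by NGS, three biological replicates, DESeq2 with apeglm shrinkage.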
row,Sequence,shrunken log2 fold change
1,RRIRERPPRLPRPRPRPWFPPRP,-0.206
2,RRIRERPPRLPRPRPRPWGGPRP,0.267
3,RRIRERPPRLPRPRPRPWGHPRP,-0.118
4,RRIRERPPRLPRPRPRPWGPPRP,-0.0024
5,RRIRERPPRLPRPRPRPWGYPRP,-0.279
6,RRIRERPPRLPRPRPRPWHTPRP,-0.16
7,RRIRERPPRLPRPRPRPWIKPRP,-0.924
8,RRIRERPPRLPRPRPRPWKAPRP,0.0158
9,RRIRERPPRLPRPRPRPWKGPRP,-0.0443
10,RRIRERPPRLPRPRPRPWKPPRP,-0.00455
11,RRIRERPPRLPRPRPRPWLIPRP,-0.397
12,RRIRERPPRLPRPRPRPWLQPRP,0.0293
13,RRIRERPPRLPRPRPRPWLTPRP,-0.0528
14,RRIRERPPRLPRPRPRPWMFPRP,0.0458
15,RRIRERPPRLPRPRPRPWMKPRP,-0.353
16,RRIRERPPRLPRPRPRPWPIPRP,-0.679
17,RRIRERPPRLPRPRPRPWQQPRP,0.015
18,RRIRERPPRLPRPRPRPWRWPRP,0.0174
19,RRIRERPPRLPRPRPRPWSAPRP,-0.00234
20,RRIRERPPRLPRPRPRPWSKPRP,-0.466
21,RRIRERPPRLPRPRPRPWSPPRP,-0.0132
22,RRIRERPPRLPRPRPRPWSRPRP,0.0483

row,Sequence,shrunken log2 fold change
1,RRIRERPPRLPRPRPRPWTRPRP,-0.0974
2,RRIRERPPRLPRPRPRPWWFPRP,0.137
3,RRIRERPPRLPRPRPRPWWWPRP,0.0554
4,RRIRERPPRLPRPRPRPWYQPRP,-0.219
5,RRIRERPPRLPRPRPRPWYRPRP,-0.217
6,RRIRERPPRLPRPRPRPYCMPRP,-1.06
7,RRIRERPPRLPRPRPRPYDAPRP,0.835
8,RRIRERPPRLPRPRPRPYDIPRP,-0.136
9,RRIRERPPRLPRPRPRPYEFPRP,0.00902
10,RRIRERPPRLPRPRPRPYGCPRP,-0.105
11,RRIRERPPRLPRPRPRPYHWPRP,-0.0488
12,RRIRERPPRLPRPRPRPYIFPRP,-0.15
13,RRIRERPPRLPRPRPRPYKHPRP,-0.684
14,RRIRERPPRLPRPRPRPYMAPRP,-0.137
15,RRIRERPPRLPRPRPRPYMRPRP,-0.188
16,RRIRERPPRLPRPRPRPYNDPRP,0.0352
17,RRIRERPPRLPRPRPRPYNFPRP,-0.254
18,RRIRERPPRLPRPRPRPYNGPRP,-0.509
19,RRIRERPPRLPRPRPRPYNIPRP,-0.184
20,RRIRERPPRLPRPRPRPYNQPRP,-0.0858
21,RRIRERPPRLPRPRPRPYPCPRP,-0.00884
22,RRIRERPPRLPRPRPRPYPGPRP,-0.379

row,Sequence,shrunken log2 fold change
1,RRIRERPPRLPRPRPRPYPPPRP,-0.942
2,RRIRERPPRLPRPRPRPYPYPRP,-0.372
3,RRIRERPPRLPRPRPRPYQLPRP,-0.0108
4,RRIRERPPRLPRPRPRPYSGPRP,-0.218
5,RRIRERPPRLPRPRPRPYTRPRP,-0.252
6,RRIRERPPRLPRPRPRPYTWPRP,-0.161
7,RRIRERPPRLPRPRPRPYVWPRP,-0.401
8,RRIRERPPRLPRPRPRPYWEPRP,-0.219
9,RRIRERPPRLPRPRPRPYYEPRP,-0.224
10,RRIRERPPRLPRPRPRPYYKPRP,-0.231
11,RRIRERPPRLPRPRPRPYYPPRP,-0.14
12,RRIRFRPPRLPRPRPRPAAEPRP,0.558
13,RRIRFRPPRLPRPRPRPAEFPRP,1.14
14,RRIRFRPPRLPRPRPRPAFDPRP,0.128
15,RRIRFRPPRLPRPRPRPAHNPRP,-0.016
16,RRIRFRPPRLPRPRPRPAHVPRP,-0.0462
17,RRIRFRPPRLPRPRPRPAKRPRP,0.21
18,RRIRFRPPRLPRPRPRPAKSPRP,-0.135
19,RRIRFRPPRLPRPRPRPALEPRP,0.0373
20,RRIRFRPPRLPRPRPRPAMNPRP,-0.102
21,RRIRFRPPRLPRPRPRPAPFPRP,-0.236
22,RRIRFRPPRLPRPRPRPAQAPRP,0.29

row,Sequence,shrunken log2 fold change
1,RRIRFRPPRLPRPRPRPAQKPRP,0.166
2,RRIRFRPPRLPRPRPRPAQSPRP,0.0902
3,RRIRFRPPRLPRPRPRPATFPRP,-0.207
4,RRIRFRPPRLPRPRPRPATLPRP,-0.159
5,RRIRFRPPRLPRPRPRPATSPRP,0.0918
6,RRIRFRPPRLPRPRPRPAVNPRP,-0.106
7,RRIRFRPPRLPRPRPRPAWCPRP,0.205
8,RRIRFRPPRLPRPRPRPAWNPRP,0.291
9,RRIRFRPPRLPRPRPRPAYRPRP,-0.0676
10,RRIRFRPPRLPRPRPRPAYWPRP,0.21
11,RRIRFRPPRLPRPRPRPCCCPRP,0.0783
12,RRIRFRPPRLPRPRPRPCEGPRP,-0.086
13,RRIRFRPPRLPRPRPRPCEKPRP,0.00738
14,RRIRFRPPRLPRPRPRPCESPRP,0.00749
15,RRIRFRPPRLPRPRPRPCFLPRP,-0.623
16,RRIRFRPPRLPRPRPRPCGSPRP,0.06
17,RRIRFRPPRLPRPRPRPCIHPRP,-0.0499
18,RRIRFRPPRLPRPRPRPCIYPRP,-0.191
19,RRIRFRPPRLPRPRPRPCPDPRP,-0.45
20,RRIRFRPPRLPRPRPRPCQFPRP,-0.227
21,RRIRFRPPRLPRPRPRPCQTPRP,-0.414
22,RRIRFRPPRLPRPRPRPCRAPRP,0.0454

row,Sequence,shrunken log2 fold change
1,RRIRFRPPRLPRPRPRPCRFPRP,-0.607
2,RRIRFRPPRLPRPRPRPCRPPRP,0.0632
3,RRIRFRPPRLPRPRPRPCRVPRP,-0.129
4,RRIRFRPPRLPRPRPRPCSIPRP,0.0647
5,RRIRFRPPRLPRPRPRPCSLPRP,-0.122
6,RRIRFRPPRLPRPRPRPCSPPRP,-0.674
7,RRIRFRPPRLPRPRPRPCTEPRP,-0.431
8,RRIRFRPPRLPRPRPRPCTWPRP,-0.0991
9,RRIRFRPPRLPRPRPRPCWAPRP,0.105
10,RRIRFRPPRLPRPRPRPCWLPRP,-0.165
11,RRIRFRPPRLPRPRPRPCYIPRP,-0.158
12,RRIRFRPPRLPRPRPRPDCDPRP,-0.147
13,RRIRFRPPRLPRPRPRPDCPPRP,-0.364
14,RRIRFRPPRLPRPRPRPDDGPRP,-0.0366
15,RRIRFRPPRLPRPRPRPDDSPRP,-0.154
16,RRIRFRPPRLPRPRPRPDECPRP,-0.399
17,RRIRFRPPRLPRPRPRPDEGPRP,0.101
18,RRIRFRPPRLPRPRPRPDFGPRP,0.0422
19,RRIRFRPPRLPRPRPRPDFYPRP,-0.105
20,RRIRFRPPRLPRPRPRPDGLPRP,0.00785
21,RRIRFRPPRLPRPRPRPDHCPRP,-0.0831

# Reference: the supplement of paper PMC9112550, “Optimization of the antimicrobial peptide Bac7 by deep mutational scanning” (BMC Biology, 2022)
